Results on 42 variants are retold here after the Human Domainome abundance scans (Beltran et al. 2025).

± gives the uncertainty stated by the source.

B1: Double-stranded RNA-specific adenosine deaminase, residues 296 to 358; numbered along this chain, P55265 (parent)
chain: MAEIKEKICDYLFNVSDSSALNLAKNIGLTKARDINAVLIDMERQGDVYRQGTTPPIWHLTDK

This series covers variants of B1. Kind of series: abundance fitness (aPCA) (normalised: wild type 0, dead -1); higher = more abundant; growth selection in yeast, the domain comes from the species named. Particulars: Homo sapiens.
Take MAEIKEKICDYLFNVSDSSALNLAKNIGLTKCRDINAVLIDMERQGDVYRQGTTPPIWHLTDK [A32C]: the abundance fitness was -0.121 ± 0.08.

In the case of MAEIKEKICDYLFNVSDSSALNLAKNIGLTKGRDINAVLIDMERQGDVYRQGTTPPIWHLTDK [A32G], the abundance fitness is -0.091 ± 0.049.

As for MAEIKEKICDYLFNVSDSSALNLAKNIGLTKHRDINAVLIDMERQGDVYRQGTTPPIWHLTDK [A32H], the abundance fitness was -0.204 ± 0.082.

For the variant MAEIKEKICDYLFNVSDSSALNLAKNIGLTKFRDINAVLIDMERQGDVYRQGTTPPIWHLTDK [A32F], the abundance fitness was -0.091 ± 0.074.

MAEIKEKICDYLFNVSDSSALNLAKNIGLTKERDINAVLIDMERQGDVYRQGTTPPIWHLTDK [A32E]: the abundance fitness amounted to 0.159 ± 0.074.

MAEIKEKICDYLFNVSDSSALNLAKNSGLTKARDINAVLIDMERQGDVYRQGTTPPIWHLTDK [I27S]: the abundance fitness was -0.435 ± 0.048.

As to MAEIKEKICDYLFNVSDSSALNLAKNPGLTKARDINAVLIDMERQGDVYRQGTTPPIWHLTDK [I27P], the abundance fitness was -0.452 ± 0.061.

For the variant MAEIKEKICDYLFNVSDSSALNLAKNVGLTKARDINAVLIDMERQGDVYRQGTTPPIWHLTDK [I27V], the abundance fitness is -0.162 ± 0.059.

For MAEIKEKICDYLFNVSDSSALNLAKNRGLTKARDINAVLIDMERQGDVYRQGTTPPIWHLTDK [I27R], the abundance fitness is -0.584 ± 0.053.

MAEIKEKICDYLFNVSDSSALNLAKNQGLTKARDINAVLIDMERQGDVYRQGTTPPIWHLTDK [I27Q]: the abundance fitness was -0.507 ± 0.072.

For the variant MAEIKEKICDYLFNVSDSSALNLAKNNGLTKARDINAVLIDMERQGDVYRQGTTPPIWHLTDK [I27N], the abundance fitness is -0.538 ± 0.11.

For MAEIKEKICDYLFNVSDSSALNLAKNYGLTKARDINAVLIDMERQGDVYRQGTTPPIWHLTDK [I27Y], the abundance fitness was -0.944 ± 0.14.

Consider MAEIKEKICDYLFNVSDSSALNLAKNWGLTKARDINAVLIDMERQGDVYRQGTTPPIWHLTDK [I27W], for which the abundance fitness is -0.818 ± 0.13.

Regarding MAEIKEKICDYLFNVSDSSALNLAKNIGNTKARDINAVLIDMERQGDVYRQGTTPPIWHLTDK [L29N], the abundance fitness came to 0.041 ± 0.054.

MAEIKEKICDYLFNVSDSSALNLAKNIGQTKARDINAVLIDMERQGDVYRQGTTPPIWHLTDK [L29Q]: the abundance fitness was -0.026 ± 0.092.

For the variant MAEIKEKICDYLFNVSDSSALNLAKNIGETKARDINAVLIDMERQGDVYRQGTTPPIWHLTDK [L29E], the abundance fitness was determined as 0.045 ± 0.11.

Turning to MAEIKEKICDYLFNVSDSSALNLAKNIGATKARDINAVLIDMERQGDVYRQGTTPPIWHLTDK [L29A], the abundance fitness was -0.103 ± 0.1.

For the variant MAEIKEKICDYLFNVSDSSALNLAKNIGSTKARDINAVLIDMERQGDVYRQGTTPPIWHLTDK [L29S], the abundance fitness is -0.17 ± 0.045.

On to MAEIKEKICDYLFNVSDSSALNLAKNIGRTKARDINAVLIDMERQGDVYRQGTTPPIWHLTDK [L29R], for which the abundance fitness is -0.356 ± 0.076.

As for MAEIKEKICDYLFNVSDSSALNLAKNIGYTKARDINAVLIDMERQGDVYRQGTTPPIWHLTDK [L29Y], the abundance fitness is -0.136 ± 0.052.

As for MAEIKEKICDYLFNVSDSSALNLAKNIGWTKARDINAVLIDMERQGDVYRQGTTPPIWHLTDK [L29W], the abundance fitness was -0.633 ± 0.23.

As for MAEIKEKICDYLFNVSDSSALNLAKNIGITKARDINAVLIDMERQGDVYRQGTTPPIWHLTDK [L29I], the abundance fitness was -0.025 ± 0.04.

Consider MAEIKEKICDYLFNVSDSSALNLAKNIGHTKARDINAVLIDMERQGDVYRQGTTPPIWHLTDK [L29H], for which the abundance fitness was -0.325 ± 0.06.

As for MAEIKEKICDYLFNVSDSSALNLAKNIGDTKARDINAVLIDMERQGDVYRQGTTPPIWHLTDK [L29D], the abundance fitness came out at 0.035 ± 0.058.

With MAEIKEKICDYLFNVSDSSALNLAKNIGCTKARDINAVLIDMERQGDVYRQGTTPPIWHLTDK [L29C], the abundance fitness is -0.125 ± 0.049.

On to MAEIKEKICDYLFNVSDSSALNLAKNIGMTKARDINAVLIDMERQGDVYRQGTTPPIWHLTDK [L29M], for which the abundance fitness amounted to 0.154 ± 0.096.

MAEIKEKICDYLFNVSDSSALNLAKNIGFTKARDINAVLIDMERQGDVYRQGTTPPIWHLTDK [L29F]: the abundance fitness is -0.107 ± 0.051.

As for MAEIKEKICDYLFNVSDSSALNLAKNIGGTKARDINAVLIDMERQGDVYRQGTTPPIWHLTDK [L29G], the abundance fitness was determined as 0.006 ± 0.058.

Consider MAEIKEKICDYLFNVSDSSALNLAKNIGVTKARDINAVLIDMERQGDVYRQGTTPPIWHLTDK [L29V], for which the abundance fitness is -0.1 ± 0.054.

On to MAEIKEKICDYLFNVSDSSALNLAKNIGPTKARDINAVLIDMERQGDVYRQGTTPPIWHLTDK [L29P], for which the abundance fitness is -0.336 ± 0.1.

In the case of MAEIKEKICDYLFNVSDSSALNLAKNIGKTKARDINAVLIDMERQGDVYRQGTTPPIWHLTDK [L29K], the abundance fitness is -0.54 ± 0.29.

For the variant MAEIKEKICDYLFNVSDSSALNLAKNIGTTKARDINAVLIDMERQGDVYRQGTTPPIWHLTDK [L29T], the abundance fitness was -0.167 ± 0.062.

Consider MAEIKEKICDYLFNVSDSSALNLAKNIGLLKARDINAVLIDMERQGDVYRQGTTPPIWHLTDK [T30L], for which the abundance fitness is -0.312 ± 0.047.

On to MAEIKEKICDYLFNVSDSSALNLAKNIGLIKARDINAVLIDMERQGDVYRQGTTPPIWHLTDK [T30I], for which the abundance fitness was -0.299 ± 0.084.

Consider MAEIKEKICDYLFNVSDSSALNLAKNIGLPKARDINAVLIDMERQGDVYRQGTTPPIWHLTDK [T30P], for which the abundance fitness is -0.199 ± 0.064.

Turning to MAEIKEKICDYLFNVSDSSALNLAKNIGLFKARDINAVLIDMERQGDVYRQGTTPPIWHLTDK [T30F], the abundance fitness is -0.246 ± 0.1.

Regarding MAEIKEKICDYLFNVSDSSALNLAKNIGLQKARDINAVLIDMERQGDVYRQGTTPPIWHLTDK [T30Q], the abundance fitness was -0.021 ± 0.086.

Turning to MAEIKEKICDYLFNVSDSSALNLAKNIGLYKARDINAVLIDMERQGDVYRQGTTPPIWHLTDK [T30Y], the abundance fitness stood at 0.141 ± 0.078.

As to MAEIKEKICDYLFNVSDSSALNLAKNIGLDKARDINAVLIDMERQGDVYRQGTTPPIWHLTDK [T30D], the abundance fitness stood at 0.413 ± 0.053.

MAEIKEKICDYLFNVSDSSALNLAKNIGLNKARDINAVLIDMERQGDVYRQGTTPPIWHLTDK [T30N]: the abundance fitness amounted to 0.127 ± 0.1.

Consider MAEIKEKICDYLFNVSDSSALNLAKNIGLMKARDINAVLIDMERQGDVYRQGTTPPIWHLTDK [T30M], for which the abundance fitness is -0.204 ± 0.072.

Take MAEIKEKICDYLFNVSDSSALNLAKNIGLVKARDINAVLIDMERQGDVYRQGTTPPIWHLTDK [T30V]: the abundance fitness is -0.201 ± 0.058.
